These results are taken from patent US20210322524A1 (CASE WESTERN RESERVE UNIVERSITY, published 2021).

Assay [1] deals with T1, GST-Drp1 recombinant protein (UniProt O00429-3 1-710, limits assumed).
T1 construct: Bought (Abnova); also called Dynamin-related protein 1; not shown: GST tag
The experiment in a line: biotin-DA1 with purified protein, streptavidin beads, western blot.

In assay [2] the target is T2, ATAD3A-Flag protein (human ATAD3A wildtype, Flag-tagged) (human, UniProt Q9NVI7 1-586).
T2 construct: Made cell-free (TNT system) from pcDNA3.1(+)-ATAD3A-Flag for the in vitro assays, or expressed in HEK293 cells; the same construct is used for both here; also called ATAD3A WT; flag-tagged ATAD3A; not shown: Flag tag
T2 sequence (looked up): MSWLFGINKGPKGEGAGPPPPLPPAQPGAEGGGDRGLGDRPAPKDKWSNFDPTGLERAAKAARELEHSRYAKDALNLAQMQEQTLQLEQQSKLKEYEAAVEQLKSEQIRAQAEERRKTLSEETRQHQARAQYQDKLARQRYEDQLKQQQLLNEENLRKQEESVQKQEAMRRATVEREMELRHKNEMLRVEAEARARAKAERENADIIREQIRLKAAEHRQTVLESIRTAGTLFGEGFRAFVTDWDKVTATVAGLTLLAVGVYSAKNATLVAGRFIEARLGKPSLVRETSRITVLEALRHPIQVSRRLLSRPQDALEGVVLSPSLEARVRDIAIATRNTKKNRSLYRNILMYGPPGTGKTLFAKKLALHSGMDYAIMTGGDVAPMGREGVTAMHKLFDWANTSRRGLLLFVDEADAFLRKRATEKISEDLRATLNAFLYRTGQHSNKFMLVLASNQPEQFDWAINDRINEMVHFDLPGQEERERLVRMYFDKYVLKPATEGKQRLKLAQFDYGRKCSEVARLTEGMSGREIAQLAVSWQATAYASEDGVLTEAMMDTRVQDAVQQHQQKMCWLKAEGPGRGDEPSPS
The assay is described as follows: biotin-DA1 (10 µM) with purified protein, streptavidin beads, western blot.

The target of assay [3] is ClpP (mitochondrial matrix protein, endogenous in HD striatal cells) (mouse, UniProt O88696 53-272). The experiment in a line: biotin-DA1 with total lysates of HD striatal cells, streptavidin beads, western blot.
Assay [4] concerns the target T3, VDAC (OMM protein, endogenous in HD striatal cells) (mouse, UniProt Q3U6K8 2-283).
T3 construct: also called voltage-dependent anion channel
The description is as above.

In assay [5] the target is T4, Drp1 (endogenous, mouse striatal cells and mouse striatum) (mouse, UniProt Q8K1M6 1-736, limits assumed).
T4 construct: Endogenous protein in lysates; also called Dynamin-related protein 1
The description is as above.

The target of assay [6] is T5, ATAD3A (endogenous, mouse cells and mouse striatum) (mouse, UniProt Q925I1 2-591).
T5 construct: Endogenous protein in lysates; also called endogenous ATAD3A
T5 sequence (looked up): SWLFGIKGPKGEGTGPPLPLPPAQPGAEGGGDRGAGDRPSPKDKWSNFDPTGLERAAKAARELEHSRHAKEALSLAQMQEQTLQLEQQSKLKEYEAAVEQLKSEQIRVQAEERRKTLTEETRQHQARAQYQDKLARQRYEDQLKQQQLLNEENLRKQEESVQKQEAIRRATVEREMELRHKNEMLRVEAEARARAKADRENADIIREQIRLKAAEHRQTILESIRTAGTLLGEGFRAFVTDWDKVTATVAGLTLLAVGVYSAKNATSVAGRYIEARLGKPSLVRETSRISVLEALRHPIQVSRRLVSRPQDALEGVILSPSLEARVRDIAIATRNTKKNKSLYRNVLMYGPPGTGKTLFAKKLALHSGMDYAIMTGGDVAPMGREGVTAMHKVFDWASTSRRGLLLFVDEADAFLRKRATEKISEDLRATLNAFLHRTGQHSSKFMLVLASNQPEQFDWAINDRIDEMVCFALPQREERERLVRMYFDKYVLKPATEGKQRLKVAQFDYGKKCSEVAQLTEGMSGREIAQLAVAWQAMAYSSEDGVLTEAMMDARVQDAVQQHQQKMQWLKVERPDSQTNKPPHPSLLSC
The experiment in a line: biotin-DA1 (10 µM) with total lysates of HD striatal cells, streptavidin beads, western blot.

Where no end group is shown, it is not given here.

ClpP (mitochondrial matrix protein, endogenous in HD striatal cells), sequence (O88696 53-272 limits assumed): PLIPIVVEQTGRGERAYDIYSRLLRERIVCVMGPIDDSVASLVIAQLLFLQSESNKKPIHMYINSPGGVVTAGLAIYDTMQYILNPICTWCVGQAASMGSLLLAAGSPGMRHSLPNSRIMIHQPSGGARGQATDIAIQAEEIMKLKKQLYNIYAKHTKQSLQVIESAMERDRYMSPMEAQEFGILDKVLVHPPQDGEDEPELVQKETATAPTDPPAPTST
T1 sequence (O00429 other isoform, or with tags, fused parts or gaps limits assumed): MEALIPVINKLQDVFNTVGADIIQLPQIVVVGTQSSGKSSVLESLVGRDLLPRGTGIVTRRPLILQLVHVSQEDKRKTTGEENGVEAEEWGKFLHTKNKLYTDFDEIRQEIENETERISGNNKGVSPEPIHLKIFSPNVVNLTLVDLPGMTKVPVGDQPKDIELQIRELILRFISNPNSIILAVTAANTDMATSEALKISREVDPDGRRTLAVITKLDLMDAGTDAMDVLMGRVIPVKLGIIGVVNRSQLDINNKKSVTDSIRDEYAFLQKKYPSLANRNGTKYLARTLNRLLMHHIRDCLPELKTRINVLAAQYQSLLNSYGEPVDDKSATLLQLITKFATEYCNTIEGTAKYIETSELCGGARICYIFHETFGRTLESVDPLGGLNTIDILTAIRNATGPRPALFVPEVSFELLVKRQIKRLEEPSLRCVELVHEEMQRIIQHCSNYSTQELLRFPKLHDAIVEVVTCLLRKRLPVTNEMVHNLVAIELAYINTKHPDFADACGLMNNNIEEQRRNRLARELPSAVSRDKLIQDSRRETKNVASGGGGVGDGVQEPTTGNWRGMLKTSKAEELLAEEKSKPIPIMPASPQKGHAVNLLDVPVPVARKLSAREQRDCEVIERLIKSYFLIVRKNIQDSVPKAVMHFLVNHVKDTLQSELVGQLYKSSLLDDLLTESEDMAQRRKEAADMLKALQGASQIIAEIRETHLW
T4 sequence (Q8K1M6 whole entry): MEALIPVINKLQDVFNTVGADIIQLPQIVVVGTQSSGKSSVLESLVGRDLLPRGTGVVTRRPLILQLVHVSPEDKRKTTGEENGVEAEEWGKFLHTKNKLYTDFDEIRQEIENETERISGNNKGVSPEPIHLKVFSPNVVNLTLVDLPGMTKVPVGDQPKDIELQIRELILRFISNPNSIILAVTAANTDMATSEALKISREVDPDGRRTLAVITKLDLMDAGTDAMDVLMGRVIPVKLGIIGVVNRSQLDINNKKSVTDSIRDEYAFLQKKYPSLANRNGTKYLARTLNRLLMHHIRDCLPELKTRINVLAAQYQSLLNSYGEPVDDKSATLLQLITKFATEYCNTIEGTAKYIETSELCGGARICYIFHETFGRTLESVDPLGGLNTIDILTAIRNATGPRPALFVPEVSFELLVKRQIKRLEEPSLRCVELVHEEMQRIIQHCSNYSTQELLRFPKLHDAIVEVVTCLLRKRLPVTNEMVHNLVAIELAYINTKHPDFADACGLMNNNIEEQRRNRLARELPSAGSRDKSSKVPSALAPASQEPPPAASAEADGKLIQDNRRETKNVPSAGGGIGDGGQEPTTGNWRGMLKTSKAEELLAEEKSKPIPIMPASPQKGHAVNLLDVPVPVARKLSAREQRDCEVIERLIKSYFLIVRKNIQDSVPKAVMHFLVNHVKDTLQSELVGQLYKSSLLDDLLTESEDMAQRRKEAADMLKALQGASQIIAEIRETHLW

Regarding YGRKKRRQRRRGGEDKRKT (also: biotin, position not given here, also called biotin-DA1) [Biotin-conjugated DA1], the binding result in assay [1] was “no binding (tested: 10 µM)”; in assay [2] it was “binds”; in assay [3], “no binding (tested: 10 µM)”; in assay [4] it was “no binding (tested: 10 µM)”; in assay [5] it was “no binding (tested: 10 µM)”; in assay [6], “binds”.
